Holding throughout (experiment): SPR, Fab over captured MICA*008.mIgG2a Ala variant; KD relative to wild type
In general terms: In SPR one partner is held on a chip, and binding of the other changes the refractive index at the surface.

In one experiment the target is T1, D249A.
T1 construct: % monomer 86.64; also called MICA*008.mIgG2a D249A
T1 chain: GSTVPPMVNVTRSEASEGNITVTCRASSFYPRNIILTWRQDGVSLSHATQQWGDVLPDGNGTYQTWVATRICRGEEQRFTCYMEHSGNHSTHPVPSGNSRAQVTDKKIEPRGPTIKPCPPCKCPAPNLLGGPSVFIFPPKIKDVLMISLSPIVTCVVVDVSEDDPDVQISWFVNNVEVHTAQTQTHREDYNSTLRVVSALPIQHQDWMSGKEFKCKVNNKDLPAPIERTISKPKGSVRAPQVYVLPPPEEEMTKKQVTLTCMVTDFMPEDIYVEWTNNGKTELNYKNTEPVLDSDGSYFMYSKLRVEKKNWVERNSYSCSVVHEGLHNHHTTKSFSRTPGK

The next experiment has as its target T2, R240A.
T2 construct: % monomer 93.8; also called MICA*008.mIgG2a R240A
T2 chain: T1 chain with R39A, A48D

Another experiment has as its target T3, G275A.
T3 construct: % monomer 98.9; also called MICA*008.mIgG2a G275A
T3 chain: T1 chain with A48D, G74A

For the next experiment, the target named is T4, Y283A.
T4 construct: % monomer 92.7; also called MICA*008.mIgG2a Y283A
T4 chain: T1 chain with A48D, Y82A

Another experiment concerns the target T5, I236A.
T5 construct: % monomer 92.49; also called MICA*008.mIgG2a I236A
T5 chain: T1 chain with I35A, A48D

Another experiment addresses T6, V244A.
T6 construct: % monomer 97.6; also called MICA*008.mIgG2a V244A
T6 chain: T1 chain with V43A, A48D

Residue numbers refer to the chain shown, from its start.

Description for D249A: (§1) The binding kinetics of the anti-MICA/B antibodies binding to the MICA alanine variants was measured using surface plasmon resonance (SPR) on a T200 instrument (GE Healthcare). Anti-murine Fc (GE Healthcare) was immobilized on a CM5 sensor chip via amine-based coupling using manufacturer provided protocol. MICA*008.mIgG2a alanine variants were captured by the anti-murine Fc and the anti-MICA/B antibodies as Fabs were passed over. Fab binding was measured to human MICA*008 alpha 3 domains (mIgG2a tagged, in-house). Sensograms for binding of anti-MICA/B Fabs were recorded using an injection time of 2 minutes with a flow rate of 30 μL/min, at a temperature of 25° C., and with a running buffer of 10 mM HEPES, pH 7.4, 150 mM NaCl, 3 mM EDTA and 0.005% Tween 20. After injection, disassociation of the Fab from the alpha 3 domain was monitored for 5 minutes in running buffer. The surface was regenerated between binding cycles with a 70 μL injection of 10 mM Glycine HCl pH 1.7. After subtraction of a blank which contained running buffer only, sensograms observed for anti-MICA/B Fab binding to MICA were analyzed using a 1:1 Langmuir binding model with software supplied by the manufacturer to calculate the kinetics and binding constants. Sensograms of anti-MICA/B antibody binding to captured MICA*008 alanine variants were used to calculate the dissociation constant (Kd).
Description for G275A: as §1
Description for I236A: as §1
Description for R240A: as §1
Description for V244A: as §1
Description for Y283A: as §1

B1: 6F8.7 Fab (Fab, V domains shown)
VH: DVQLQGSGPGLVKPSQSLSLTCSVTGYSITNDYYWNWIRQFPGNKLEWMGFISFGGSNNYNPSLKNRISITRDTSKNQFFLKLSSVTTEDTATYYCARYDGRGAWFAYWAQGTLVTVSA
VL: DIQMTQSPASLSASVGETVTITCRASGNIHNYLAWYQQKQGKSPQLLVYDAITLADGVPSRFSGSGSGTQYSLKINSLQPEDFGNYYCQHFWSFPLTFGAGTKVEIK
For B1, the fold-decrease in affinity with D249A came to 0.8; with R240A it was 4.5; in the experiment with G275A, 4.6; with Y283A, 1.7; with I236A it was 1.4.

B2: 7D4.6 Fab (Fab, V domains shown)
VH: DVQLQESGPGLVKPSQSLSLTCTVTGYSITSDYAWNWIRQFPRNKLEWMGYINYSGTTNYNPSLKSRISITRDTSKNQFFLQLISVTTEDTATYYCSYYRYDGAWFPYWGQGTLVTVSA
VL: B1 VL with D50N, T53M, G64A, N85S
Regarding B2, the values for the fold-decrease in affinity in the experiment with D249A and in the experiment with I236A were 0.7 and 1.2, respectively.

B3: 2E5.2.3 Fab (Fab, V domains shown)
VH: QGQMQQSGAELVKPGASVKLSCKTSGFTFSDNYISWLKQKPGQSLEWIAWIYAGTGGTSYNQKFTAKAQLTVDTSSSTAYMQFSSLTTEDSAIYYCARHDYYGTSGAWFAYWGQGTLVTVSA
VL: DVLMTQTPLSLPVSLGDQASLSCRSSQNIVHINGNTYLEWYLQKPGQSPKLLIYKVSNRFSGVPDRFSGSGSGTDFTLKISRVEAEDLGVYYCFQGSHVPWTFGGGTKVEIK
Consider B3, for which the fold-decrease in affinity was 1 with D249A; 1 with R240A; 1 in the experiment with G275A; 1 in the experiment with V244A; 0.2 in the experiment with Y283A; 0.9 with I236A.

The record behind these values is patent publication US20200055939A1 (Genentech, published 2020).
